± gives the standard deviation.
Experiment: collision cross section of modified peptide (TIMS, N2, iRT-aligned); higher = larger / more extended gas-phase ion
How it was run: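 Collision cross section values rest on the Mason-Schamp equation applied to calibrated, run-aligned mobility data from synthetic peptides. Mobility (1/K0) was calibrated with three reference ions and aligned per run to the median iRT peptide deviation, and 1–3 technical replicates of the most abundant feature per charge state were averaged. Data came from a timsTOF Pro/HT in dda-PASEF mode (nitrogen, ~2.4 mbar) after a 120-min nanoflow C18 gradient at 60 °C.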

[1] = charge state: 2, modification: Malonyl
[2] = charge state: 2, modification: GlyGly (K)
[3] = charge state: 3, modification: GlyGly (K)
[4] = charge state: 2, modification: Acetyl (K)
[5] = charge state: 3, modification: hydroxyisobutyryl
[6] = charge state: 2, modification: hydroxyisobutyryl
[7] = charge state: 2, modification: Succinyl
[8] = charge state: 2, modification: Dimethyl (K)
[9] = charge state: 3, modification: Dimethyl (K)
[10] = charge state: 3, modification: Trimethyl (K)
[11] = charge state: 3, modification: Methyl (R)
[12] = charge state: 3, modification: Methyl (K)
[13] = charge state: 2, modification: Butyryl
[14] = charge state: 3, modification: Butyryl
[15] = charge state: 3, modification: Hydroxyproline

DASTLQSQKAEGTGDAK [_DASTLQSQK(Formyl)AEGTGDAK_]
collision cross section (charge state: 2, modification: Formyl): 431.62 ± 0.17 Å²
collision cross section (charge state: 3, modification: Formyl): 503.35 ± 3 Å²

SLIGKVDGTSHVTGK [_SLIGKVDGT(HexNAc (ST))SHVTGK_]
collision cross section (charge state: 2, modification: HexNAc (ST)): 438.41 Å²

SDSGKPYYYNSQTK [_SDSGK(Malonyl)PYYYNSQTK_]
collision cross section [1]: 422.4 ± 0.57 Å²

IISSIEQKEENK [_IISSIEQK(GlyGly (K))EENK_]
collision cross section [2]: 403.29 ± 1.5 Å²
collision cross section [3]: 482.93 Å²

INNFSADIKDSK [_INNFSADIK(Acetyl (K))DSK_]
collision cross section [4]: 398.34 ± 0.77 Å²

TQAYQDQKPGTSGLR [_TQAYQDQK(GlyGly (K))PGTSGLR_]
collision cross section [2]: 432.62 ± 1.4 Å²
collision cross section [3]: 500.32 ± 0.35 Å²

GTISAPGKVVTAAAQAK [_GTISAPGK(Gluratylation)VVTAAAQAK_]
collision cross section (charge state: 2, modification: Glutarylation): 445.81 ± 0.95 Å²
collision cross section (charge state: 3, modification: Glutarylation): 526.52 ± 1.1 Å²

DSINFLDHINGKK [_DSINFLDHINGK(hydroxyisobutyryl)K_]
collision cross section [5]: 468.17 ± 2.7 Å²

SDDESSQKDIK [_SDDESSQK(Malonyl)DIK_]
collision cross section [1]: 372.43 ± 0.63 Å²

IHVQSSSDSSDEPAEKR [_IHVQSSSDSSDEPAEK(hydroxyisobutyryl)R_]
collision cross section [6]: 455.71 ± 0.4 Å²
collision cross section [5]: 514.66 ± 3.7 Å²

ISALQGKLSK [_ISALQGK(Succinyl)LSK_]
collision cross section [7]: 354.02 ± 1.3 Å²

LDHLAEKFR [_LDHLAEK(Dimethyl (K))FR_]
collision cross section [8]: 368.82 ± 0.36 Å²
collision cross section [9]: 433.76 ± 2.1 Å²

GEVGAGAGPGAQAGPSAKR [_GEVGAGAGPGAQAGPSAK(Trimethyl (K))R_]
collision cross section [10]: 489.76 ± 5.2 Å²

AVPSSPAGSAARGR [_AVPSSPAGSAAR(Methyl (R))GR_]
collision cross section (charge state: 2, modification: Methyl (R)): 387.69 ± 1.4 Å²
collision cross section [11]: 492.48 ± 1.5 Å²

LLEQKTQESQK [_LLEQK(Acetyl (K))TQESQK_]
collision cross section [4]: 392.69 ± 0.79 Å²

PGGEGPQCEKTTDVK [_PGGEGPQCEK(Methyl (K))TTDVK_]
collision cross section [12]: 460.64 Å²

GSLGAQKLANTCFNEIEK [_GSLGAQK(hydroxyisobutyryl)LANTCFNEIEK_]
collision cross section [6]: 476.97 ± 0.8 Å²

ITASLCDLKSR [_ITASLCDLK(Biotin)SR_]
collision cross section (charge state: 2, modification: Biotin): 401.02 Å²

LDHLAEKFR [_LDHLAEK(Biotin)FR_]
collision cross section (charge state: 3, modification: Biotin): 452.58 Å²

DDIIENAPTTHTEEYSGEEK [_DDIIENAPTTHTEEY(Nitro (Y))SGEEK_]
collision cross section (charge state: 3, modification: Nitro (Y)): 553.72 ± 2.2 Å²

KYEEIDNAPEER [_K(Butyryl)YEEIDNAPEER_]
collision cross section [13]: 413.71 ± 1.1 Å²
collision cross section [14]: 492.73 ± 3.5 Å²

FSAYIKNSNPALNDNLEK [_FSAYIK(Acetyl (K))NSNPALNDNLEK_]
collision cross section [4]: 479.82 ± 3 Å²
collision cross section (charge state: 3, modification: Acetyl (K)): 541.74 Å²

SRGGGGNFGPGPGSNFR [_SR(Methyl (R))GGGGNFGPGPGSNFR_]
collision cross section [11]: 461.66 ± 1.4 Å²

SKHLQEQLNELK [_SK(Butyryl)HLQEQLNELK_]
collision cross section [13]: 422.39 ± 0.24 Å²
collision cross section [14]: 490.06 ± 2.9 Å²

TLQKQSVVYGGK [_TLQK(Methyl (K))QSVVYGGK_]
collision cross section (charge state: 2, modification: Methyl (K)): 395.77 ± 1.4 Å²
collision cross section [12]: 446.7 ± 4.9 Å²

ASAISIKLGSSK [_ASAISIK(Trimethyl (K))LGSSK_]
collision cross section (charge state: 2, modification: Trimethyl (K)): 386.31 ± 1.1 Å²
collision cross section [10]: 448.52 ± 3.3 Å²

DYSVTANSK [_DY(Phospho (Y))SVTANSK_]
collision cross section (charge state: 2, modification: Phospho (Y)): 332.04 ± 0.69 Å²

GDRGEIGPPGPR [_GDRGEIGPP(Hydroxyproline)GPR_]
collision cross section (charge state: 2, modification: Hydroxyproline): 368.56 ± 1.9 Å²
collision cross section [15]: 424.63 ± 1.2 Å²

PASGAGAGAGAGKR [_PASGAGAGAGAGK(hydroxyisobutyryl)R_]
collision cross section [6]: 363.2 ± 0.9 Å²
collision cross section [5]: 470.09 ± 2.8 Å²

SLEEEGAAHSGKR [_SLEEEGAAHSGK(Succinyl)R_]
collision cross section [7]: 416.07 ± 1.8 Å²
collision cross section (charge state: 3, modification: Succinyl): 470.94 ± 2.7 Å²

ITESVAETAQTIKK [_ITESVAETAQTIK(Dimethyl (K))K_]
collision cross section [8]: 449.13 ± 1.2 Å²
collision cross section [9]: 499.12 ± 1.6 Å²

IQQELQTAKK [_IQQELQTAK(Crotonyl)K_]
collision cross section (charge state: 2, modification: Crotonyl): 386.16 ± 0.79 Å²
collision cross section (charge state: 3, modification: Crotonyl): 431.2 ± 1.6 Å²

GDTGLPGPQGIPGGVGSPGR [_GDTGLPGPQGIPGGVGSP(Hydroxyproline)GR_]
collision cross section [15]: 499.06 ± 39 Å²

SNEEGSEEKGPEVR [_SNEEGSEEK(Malonyl)GPEVR_]
collision cross section [1]: 402.09 ± 1.6 Å²

Reference: the supplement of paper PMC10598134
